The text below walks through data of patent US9273140B2, “Antibody for detecting DNA damage in cells utilizing cell membrane surface antigen Ly6D” (FUJITA HEALTH UNIVERSITY, priority 2012, dated 2016).

Test [1] has as its system LY6D expression on the surfaces of MCF10A cells. Nature of the test: LY6D expression in MCF10A cells incubated with DNA-damaging stressors, by FCM. Type of test: cell-based. To be noted: contact with DNA-damaging stressor (MMC 300 nM; hydroxyurea 2 mM), FIG. 4. Here is the method: MCF10A cells were incubated with DNA-damaging stressor (MMC: 300 nM), carboplatin, hydroxyurea (2 mM), or aphidicolin and relative LY6D expression was determined by FCM.
After the growth to confluence, the cells were irradiated at 10Gy (3 mA/50 kV) in cabinet-type X-ray apparatus (SOFRON, soft X-ray inversion system). At a desired timing after irradiation, the cells were harvested.
The FCM analysis was carried out according to the method reported previously (Kurosawa et al., 2009, Immunol. Meth. 351: 1-12). Reactivity of the obtained anti-Ly6D antibodies was examined using the Ly6D expression cell line, namely A431™ (cell line human squamous carcinoma) (CML ATCC CCL-243). The A431 cells were recovered by centrifugation. The recovered cells were washed once with PBS and then suspended in FACS Buffer (PBS containing 1% BSA, 2 mM EDTA, and 0.1% NaN3) to result in 1×10^6 cells/mL. The cell suspension (100 μL) was dispensed on a 96-well V-bottomed plate (Costar 3897). The Ly6D antibodies were adjusted to a concentration of 0.02 to 2 μg/mL using FACS Buffer. The prepared antibody solution (100 μL) was added to the cells, followed by incubation at 4° C. for 1 hour. The cells were washed twice with FACS buffer. Then, 100 μL of ALEXAFLUOR-anti-human IgG™ (fluorescent antibody) (Invitrogen) diluted 750-fold with FACS Buffer was added to the cells, followed by another incubation at 4° C. for 1 hour. The cells were washed with FACS Buffer twice by centrifugation and set in HTS of FACS Calibur (BD) for measurement of FL1 fluorescence intensity of each well.
It is well known that X-ray irradiation causes damage to DNA, which results in DNA double-strand breaks. A variety of chemical reagents also cause DNA damage stress in cells. Therefore, the influence of camptothecin (CPT) on the LY6D expression in MCF10A cells was examined. […] Therefore, the induction of LY6D expression on the surfaces of MCF10A cells was confirmed to be a common phenomenon due to DNA damage stress.

Another test has as its system LY6D expression. To be noted: Rubinfeld et al., 2006; cited from earlier work.
Another test has as its system MCF10A cells. Nature of the test: Selection of monoclonal antibodies by cell ELISA, FCM and confocal laser microscopy on X-ray-irradiated and non-irradiated cells. The class given is binding. Here is the method: X-ray-irradiated MCF10A cells (black bars) and non-irradiated MCF10A cells (gray bars) were subjected to ELISA using six monoclonal antibodies (A: cell ELISA). X-ray-irradiated cells (pink) and non-irradiated cells (green) were incubated with six monoclonal antibodies and subjected to FCM, and non-irradiated cells incubated with PBS were used as a negative control (purple) (B: FCM). X-ray-irradiated cells and non-irradiated cells were stained with the E33-139 monoclonal antibody (green) and DAPI (blue), respectively, and examined using a confocal laser microscope (C: immunofluorescence confocal laser microscopy).
X-ray-irradiated cells and non-irradiated cells were prepared, and antibodies specific to the irradiated cells were screened for by cell ELISA. That is, reactivity of antibody to both cells was examined by ELISA. A blocking solution (5% skim milk/0.05% NaN3/PBS) was added at 200 μL/well to both cells, followed by blocking at 37° C. for 2 hours. The blocking solution was removed and the cells were washed with PBS. The supernatant of the above antibody expression culture was added at 100 μL/well, followed by reaction at 37° C. for 1 hour. The resultant was washed five times with PBS. Rabbit anti-cp3 (1 μg/mL) diluted with PBS/0.05% Tween 20 was added at 100 μL/well, followed by reaction at 37° C. for 1 hour. The resultant was washed five times with PBS. Anti-Rabbit IgG (H+L)-HRP diluted 2000-fold with PBS/0.05% Tween 20 was further added at 100 μL/well, followed by reaction at 37° C. for 1 hour. The resultant was washed five times with PBS. […] Then, the absorbance at 492 nm was measured by SPECTRAmax340PC (Molecular Devices). Antibodies showing obvious positive reactivity specific to only the irradiated cells were selected and DNA sequences of the phages were analyzed. […]
The FCM analysis was carried out according to the method reported previously (Kurosawa et al., 2009, Immunol. Meth. 351: 1-12). […] The cells were washed with FACS Buffer twice by centrifugation and set in HTS of FACS Calibur (BD) for measurement of FL1 fluorescence intensity of each well. […]
In general terms: In an ELISA, binding on a coated surface is turned into a signal by an enzyme label.

In a further test the target is T1, LY6D (Homo sapiens, UniProt Q14210).
T1 construct: LY6D was identified by the precipitate derived from the X-ray-irradiated cells; endogenous in cells; host or cells: MCF10A cells (X-ray-irradiated and non-irradiated); FaDu cells
T1 sequence (Q14210 21-98 limits assumed): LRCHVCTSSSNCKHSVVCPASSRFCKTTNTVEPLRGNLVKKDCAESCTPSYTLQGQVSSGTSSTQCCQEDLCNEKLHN
Nature of the test: Immunoprecipitation, western blot and mass spectrometry to identify the antigen recognized by the antibody. Type of test: binding. To be noted: for 14 kDa band in western blot of immunoprecipitate: FIG. 2A. On the procedure: After biotinylation, the membrane proteins of the X-ray-irradiated MCF10A cells (right) and non-irradiated MCF10A cells (left) were solubilized and subjected to immunoprecipitation using the E33-139 monoclonal antibody, the product was separated by SDS-PAGE, and western blot was performed with HRP-conjugated streptavidin (A: western blot). MCF10A cells treated as described above were digested with PI-PLC, the resultant was centrifuged, and cell pellets (P) and the supernatant (S) subjected to PI-PLC treatment were separately immunoprecipitated (B: western blot). FaDu cells were treated with LY6D siRNA or control siRNA and analyzed by FCM using the E33-139 monoclonal antibody (black line: control siRNA and the E33-139 monoclonal antibody; dashed line: LY6D siRNA and the E33-139 monoclonal antibody; gray: control siRNA without the E33-139 monoclonal antibody (C: FCM). The experiment shown in FIG. 2B was carried out using FaDu cells (D: western blot). Solubilized FaDu cells were subjected to IP using the E33-139 monoclonal antibody and the product was separated by SDS-PAGE (left: western blot using anti-hLY6D Ab (polyclonal Ab, commercial product); right: silver stained gel) (E: western blot).
Conditions of immunoprecipitation were set as previously reported (Kurosawa et al., 2009, J. Immunol. Meth. 351: 1-12). […] The concentrate was analyzed by LC/MS.
Immunoprecipitation (IP) was performed to identify an antigen recognized by the E33-139 antibody. […] They were determined to be detected in precipitates in a nonspecific manner because they are abundant in the cytoplasm. […] Therefore, LY6D was determined to be a promising candidate as an antigen recognized by E33-139.
It has been reported that LY6D is abundantly expressed in a large amount in squamous cell carcinoma of head and neck (Quak et al., 1990, Am. J. Pathol. 136: 191-197). […] Before digestion with PI-PLC, a 14-kDa band was detected by the western blot method. […] The resulting blots were detected using a commercially available anti-human LY6D antibody. […]
(Immunoblotting shows a protein as a band on a membrane.)

`C[C@@]1(CO)[C@H](O)CC[C@@]2(C)[C@H]1CC[C@H]1C[C@@H]3C[C@@]12CC[C@]3(O)CO` [aphidicolin]: in test [1], the “LY6D expression on the surfaces of MCF10A cells” value (from here on “LY6D expression on the surfaces”) was “induced”.

On to `N.N.O=C([O-])C1(C(=O)[O-])CCC1.[Pt+2]` [carboplatin], for which the “LY6D expression on the surfaces” value in test [1] was “induced”.

For the molecule `NC(=O)NO` [hydroxyurea], in test [1], the “LY6D expression on the surfaces” value is “induced”.

Consider `CCc1c2c(nc3ccc(OC(=O)N4CCC(N5CCCCC5)CC4)cc13)-c1cc3c(c(=O)n1C2)COC(=O)[C@]3(O)CC` [irinotecan], for which the “LY6D expression after chemotherapy treatment” value with LY6D expression is “significantly enhanced”.

As to `CO[C@@]12[C@H](COC(N)=O)C3=C(C(=O)C(C)=C(N)C3=O)N1C[C@@H]1N[C@@H]12` [mitomycin C], the “LY6D expression on the surfaces” value in test [1] is “induced”.

B1: E33-139: human phage antibody (scFv) against LY6D; sequence SEQ ID NOS: 1 and 2, CDRs SEQ ID NOS: 3 to 8 (protein)
scFv: MAEVQLVESGGGLVQPGRSLRLSCAASGFTFDDYAMHWVRQAPGKGLEWVSGISWNSGSIGYADSVKGRFTISRDNAKNSLYLQMNSLRAEDTALYYCAKTGILDAFDIWGQGTTVTVSRGGGGSGGGGSGGGGSMAQSVLTQPPSVSGAPRQTVTISCSGSSSNIGQNSVTWYQRLPGEAPKLLIYYDDLLHSGVSDRFSGSKSGTSASLAISGLQSEDEAEYYCASWDDSLKGPVFGGGTKLTVLGQPKAAPSVTLFPPSSEELQANKATLVCLISDFYPGAVTVAWKADSSPVKAGVETTTPSKQSNNKYAASSYLSLTPEQWKSHKSYSCQVTHEGSTVEKTVAPTECSAR
modifications: human
For the molecule B1, the “reactivity to MCF10A cells after X-ray irradiation” value in the test on MCF10A cells (X-ray-irradiated MCF10A cells (10Gy)) was “increased reactivity”. Also, the “binding to molecules on the surfaces of X-ray-irradiated cells, confocal laser microscope analysis” value in the test on MCF10A cells (X-ray-irradiated MCF10A cells, FIG. 1C) was “consistently and strongly binds”. Moreover, in the test on MCF10A cells (non-irradiated MCF10A cells), the “reactivity to MCF10A cells before X-ray irradiation” value is “no reactivity”. In addition, the “antigen recognized by the antibody” value with LY6D (IP, MS, PI-PLC, siRNA and anti-human LY6D western blot) is listed as “antigen protein 139 is LY6D”. The “14 kDa band in western blot of immunoprecipitate” value is “a prominent band was observed” with LY6D (samples from X-ray-irradiated MCF10A cells) and “slightly observed” with LY6D (samples from non-irradiated MCF10A cells).
